Assay results as given in ChEMBL document CHEMBL1212772.

What was measured:
[1] = substrate: CC1(C)S[C@@H]2[C@H](NC(=O)Cc3ccccc3)C(=O)N2[C@H]1C(=O)O; assay: (§1) Activity of Escherichia coli CMY-2
[2] = substrate: O=C(Cc1cccs1)N[C@@H]1C(=O)N2C(C(=O)O)=C(/C=C/c3ccc([N+](=O)[O-])cc3[N+](=O)[O-])CS[C@H]12; assay: as §1
[3] = substrate: C[C@@H](O)[C@H]1C(=O)N2C(C(=O)O)=C(SCCNC=N)C[C@H]12; assay: as §1
[4] = substrate: O=C(Cc1cccs1)N[C@@H]1C(=O)N2C(C(=O)[O-])=C(C[n+]3ccccc3)CS[C@H]12; assay: as §1
[5] = substrate: C[C@@H](O)[C@H]1C(=O)N2C(C(=O)O)=C(S[C@@H]3CN[C@H](CNS(N)(=O)=O)C3)[C@H](C)[C@H]12; assay: as §1
[6] = substrate: C[C@@H](O)[C@H]1C(=O)N2C(C(=O)O)=C(S[C@@H]3CN[C@H](C(=O)N(C)C)C3)[C@H](C)[C@H]12; assay: as §1
[7] = substrate: CC(C)(O/N=C(\C(=O)N[C@@H]1C(=O)N2C(C(=O)[O-])=C(C[n+]3ccccc3)CS[C@H]12)c1csc(N)n1)C(=O)O; assay: as §1
[8] = compound: C[C@@H](O)[C@H]1C(=O)N2C(C(=O)O)=C(SCCNC=N)C[C@H]12; assay: (§2) Inhibition of Escherichia coli CMY-2 assessed as inhibition of nitrocefin hydrolysis
[9] = compound: C[C@@H](O)[C@H]1C(=O)N2C(C(=O)O)=C(S[C@@H]3CN[C@H](C(=O)N(C)C)C3)[C@H](C)[C@H]12; assay: as §2
[10] = substrate: CC1(C)S[C@@H]2[C@H](NC(=O)Cc3ccccc3)C(=O)N2[C@H]1C(=O)O; assay: (§3) Kcat/Km ratio of Escherichia coli CMY-2
[11] = substrate: O=C(Cc1cccs1)N[C@@H]1C(=O)N2C(C(=O)O)=C(/C=C/c3ccc([N+](=O)[O-])cc3[N+](=O)[O-])CS[C@H]12; assay: as §3
[12] = substrate: C[C@@H](O)[C@H]1C(=O)N2C(C(=O)O)=C(SCCNC=N)C[C@H]12; assay: as §3
[13] = substrate: O=C(Cc1cccs1)N[C@@H]1C(=O)N2C(C(=O)[O-])=C(C[n+]3ccccc3)CS[C@H]12; assay: as §3
[14] = substrate: C[C@@H](O)[C@H]1C(=O)N2C(C(=O)O)=C(S[C@@H]3CN[C@H](CNS(N)(=O)=O)C3)[C@H](C)[C@H]12; assay: as §3
[15] = substrate: C[C@@H](O)[C@H]1C(=O)N2C(C(=O)O)=C(S[C@@H]3CN[C@H](C(=O)N(C)C)C3)[C@H](C)[C@H]12; assay: as §3
[16] = substrate: CC(C)(O/N=C(\C(=O)N[C@@H]1C(=O)N2C(C(=O)[O-])=C(C[n+]3ccccc3)CS[C@H]12)c1csc(N)n1)C(=O)O; assay: as §3
[17] = substrate: CC1(C)S[C@@H]2[C@H](NC(=O)Cc3ccccc3)C(=O)N2[C@H]1C(=O)O; assay: (§4) Kcat/Km ratio of Pseudomonas aeruginosa AmpC
[18] = substrate: O=C(Cc1cccs1)N[C@@H]1C(=O)N2C(C(=O)O)=C(/C=C/c3ccc([N+](=O)[O-])cc3[N+](=O)[O-])CS[C@H]12; assay: as §4
[19] = substrate: C[C@@H](O)[C@H]1C(=O)N2C(C(=O)O)=C(SCCNC=N)C[C@H]12; assay: as §4
[20] = substrate: O=C(Cc1cccs1)N[C@@H]1C(=O)N2C(C(=O)[O-])=C(C[n+]3ccccc3)CS[C@H]12; assay: as §4
[21] = substrate: C[C@@H](O)[C@H]1C(=O)N2C(C(=O)O)=C(S[C@@H]3CN[C@H](CNS(N)(=O)=O)C3)[C@H](C)[C@H]12; assay: as §4
[22] = substrate: C[C@@H](O)[C@H]1C(=O)N2C(C(=O)O)=C(S[C@@H]3CN[C@H](C(=O)N(C)C)C3)[C@H](C)[C@H]12; assay: as §4
[23] = substrate: CC1(C)S[C@@H]2[C@H](NC(=O)Cc3ccccc3)C(=O)N2[C@H]1C(=O)O; assay: (§5) Activity of Pseudomonas aeruginosa AmpC
[24] = substrate: O=C(Cc1cccs1)N[C@@H]1C(=O)N2C(C(=O)O)=C(/C=C/c3ccc([N+](=O)[O-])cc3[N+](=O)[O-])CS[C@H]12; assay: as §5
[25] = substrate: C[C@@H](O)[C@H]1C(=O)N2C(C(=O)O)=C(SCCNC=N)C[C@H]12; assay: as §5
[26] = substrate: O=C(Cc1cccs1)N[C@@H]1C(=O)N2C(C(=O)[O-])=C(C[n+]3ccccc3)CS[C@H]12; assay: as §5
[27] = substrate: C[C@@H](O)[C@H]1C(=O)N2C(C(=O)O)=C(S[C@@H]3CN[C@H](CNS(N)(=O)=O)C3)[C@H](C)[C@H]12; assay: as §5
[28] = substrate: C[C@@H](O)[C@H]1C(=O)N2C(C(=O)O)=C(S[C@@H]3CN[C@H](C(=O)N(C)C)C3)[C@H](C)[C@H]12; assay: as §5
[29] = compound: C[C@@H](O)[C@H]1C(=O)N2C(C(=O)O)=C(SCCNC=N)C[C@H]12; assay: (§6) Inhibition of Pseudomonas aeruginosa AmpC assessed as inhibition of nitrocefin hydrolysis
[30] = compound: C[C@@H](O)[C@H]1C(=O)N2C(C(=O)O)=C(S[C@@H]3CN[C@H](CNS(N)(=O)=O)C3)[C@H](C)[C@H]12; assay: as §6
[31] = compound: C[C@@H](O)[C@H]1C(=O)N2C(C(=O)O)=C(S[C@@H]3CN[C@H](C(=O)N(C)C)C3)[C@H](C)[C@H]12; assay: as §6

B1: Beta-lactamase (Escherichia coli), Q53TY8 (protein)
chain: MMKKSLCCALLLTASFSTFAAAKTEQQIADIVNRTITPLMQEQAIPGMAVAVIYQGKPYYFTWGKADIANNHPVTQQTLFELGSVSKTFNGVLGGDAIARGEIKLSDPVTKYWPELTGKQWQGIRLLHLATYTAGGLPLQIPDDVRDKAALLHFYQNWQPQWTPGAKRLYANSSIGLFGALAVKPSGMSYEEAMTRRVLQPLKLAHTWITVPQNEQKDYAWGYREGKPVHVSPGQLDAEAYGVKSSVIDMARWVQANMDASHVQEKTLQQGIALAQSRYWRIGDMYQGLGWEMLNWPLKADSIINGSDSKVALAALPAVEVNPPAPAVKASWVHKTGSTGGFGSYVAFVPEKNLGIVMLANKSYPNPVRVEAAWRILEKLQ
Km [1]: 2.2 µM
kcat [1]: 22 s⁻¹
Km [2]: 40 µM
kcat [2]: 1700 s⁻¹
kcat [3]: < 0.031 s⁻¹
Km [4]: 290 µM
kcat [4]: 710 s⁻¹
kcat [5]: 7.2e-05 s⁻¹
kcat [6]: 8.1e-05 s⁻¹
Km [7]: 4.5 µM
kcat [7]: 0.0035 s⁻¹
Km [8]: 0.31 µM
Km [9]: 0.06 µM
kcat/Km [10]: 10 s⁻¹ µM⁻¹
kcat/Km [11]: 43 s⁻¹ µM⁻¹
kcat/Km [12]: 0.1 s⁻¹ µM⁻¹
kcat/Km [13]: 2.4 s⁻¹ µM⁻¹
kcat/Km [14]: 0.016 s⁻¹ µM⁻¹
kcat/Km [15]: 0.0014 s⁻¹ µM⁻¹
kcat/Km [16]: 0.00078 s⁻¹ µM⁻¹

B2: Beta-lactamase (Pseudomonas aeruginosa (strain ATCC 15692 / PAO1 / 1C / PRS 101 / LMG12228)), P24735 (protein)
chain: MRDTRFPCLCGIAASTLLFATTPAIAGEAPADRLKALVDAAVQPVMKANDIPGLAVAISLKGEPHYFSYGLASKEDGRRVTPETLFEIGSVSKTFTATLAGYALTQDKMRLDDRASQHWPALQGSRFDGISLLDLATYTAGGLPLQFPDSVQKDQAQIRDYYRQWQPTYAPGSQRLYSNPSIGLFGYLAARSLGQPFERLMEQQVFPALGLEQTHLDVPEAALAQYAQGYGKDDRPLRVGPGPLDAEGYGVKTSAADLLRFVDANLHPERLDRPWAQALDATHRGYYKVGDMTQGLGWEAYDWPISLKRLQAGNSTPMALQPHRIARLPAPQALEGQRLLNKTGSTNGFGAYVAFVPGRDLGLVILANRNYPNAERVKIAYAILSGLEQQGKVPLKR
kcat/Km [17]: 3.1 s⁻¹ µM⁻¹
kcat/Km [18]: 4.8 s⁻¹ µM⁻¹
kcat/Km [19]: < 4.8 s⁻¹ µM⁻¹
kcat/Km [20]: 0.27 s⁻¹ µM⁻¹
kcat/Km [21]: < 0.0033 s⁻¹ µM⁻¹
kcat/Km [22]: < 0.0043 s⁻¹ µM⁻¹
Km [23]: 14 µM
Km [24]: 31 µM
kcat [24]: 150 s⁻¹
kcat [25]: < 0.03 s⁻¹
Km [26]: 350 µM
kcat [27]: < 0.006 s⁻¹
kcat [28]: < 0.006 s⁻¹
Km [29]: 1.6 µM
Km [30]: 1.8 µM
Km [31]: 1.4 µM
